Experimental data: patent US20050277575A1, “Therapeutic compositions and methods for treating diseases that involve angiogenesis” (priority 2004, published 2005)
Where “and” joins values, the source holds several entries; their conditions need not be identical. Identical values can stand only once. Like-named read-outs stand apart in the source and are kept apart here. Where a SMILES comes first, the peptide text is derived from it.

How the values were obtained:
[1] = molecular target: T1, t-PA-mediated plasminogen activation (Homo sapiens, UniProt P00750); test: t-PA-dependent conversion of plasminogen to plasmin, effect of S100A4 (Example 11); assay type: biochemical; conditions: with or without 2.5 μM S100A4; for Vmax: 150 nM plasminogen, 5 nM t-PA
T1 construct: purchased Calbiochem
T1 sequence (P00750 36-562): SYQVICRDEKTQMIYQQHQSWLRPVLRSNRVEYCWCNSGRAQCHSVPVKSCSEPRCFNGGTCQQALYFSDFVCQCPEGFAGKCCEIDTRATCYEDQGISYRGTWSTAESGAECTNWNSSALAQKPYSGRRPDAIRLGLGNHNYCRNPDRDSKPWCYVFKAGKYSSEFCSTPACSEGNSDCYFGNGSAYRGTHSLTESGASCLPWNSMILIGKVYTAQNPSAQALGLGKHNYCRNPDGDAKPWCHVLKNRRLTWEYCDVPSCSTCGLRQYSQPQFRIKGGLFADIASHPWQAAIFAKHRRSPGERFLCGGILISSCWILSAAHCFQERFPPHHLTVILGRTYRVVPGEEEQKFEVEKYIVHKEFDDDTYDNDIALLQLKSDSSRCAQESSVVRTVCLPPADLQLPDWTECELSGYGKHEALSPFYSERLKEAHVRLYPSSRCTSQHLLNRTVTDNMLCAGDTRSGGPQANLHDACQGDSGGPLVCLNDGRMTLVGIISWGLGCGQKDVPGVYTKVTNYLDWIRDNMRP
Experimental: Non-active plasminogen can be converted to active protease plasmin by tissue type (t-PA) or urokinase type (u-PA) plasminogen activators. Except for its well-known fibrinolytic activity, plasmin also directly and indirectly, by activation of matrix metalloproteinases (MMPs), participates in the degradation of extracellular matrix that is important for the angiogenesis and tumor invasion. The kinetics of t-PA-mediated plasminogen activation was determined by measuring amidolytic activity of the plasmin generated during plasminogen activation. The reaction was performed with the plasmin substrate Chromozyme PL, tosyl-glycyl-prolyl-lysin-4-nitranilide-acetate (Roche) in the final concentration of 125 μM in a buffer consisting of 50 mM Tris-HCl, pH 7.4, 100 mM NaCl, 5 mM of CaCl2 or 5 mM of EGTA, and 150 nM of [Glu] plasminogen (Calbiochem). The reaction was preincubated with or without 2.5 μM S100A4 at 24 C° for 1 h in 96-well plates. The reaction was initiated by addition of t-PA (Calbiochem) up to 5 nM concentration, final volume 100 μl. Kinetic of substrate hydrolysis was measured at 2 min intervals at 405 nm in Spectramax Plus 384 spectrophotometer (Molecular Devices). Analysis of kinetics curves (Vmax, time to Vmax, and initial slope of kinetic data converted to A405 versus time^2) was performed with the help of Softmax PRO program (Molecular Devices).
Kinetics of plasminogen to plasmin conversion consists of three parts. As shown in FIG. #3 curves 1 and 2 for t-PA, during first 1500 s the reaction is second order that corresponds to conversion of plasminogen to plasmin and consequent cleavage of chromogenic substrate by plasmin. The second part of reaction is linear, for which Vmax can be calculated. It starts after total conversion of plasminogen to plasmin and corresponds to cleavage of chromogenic substrate by plasmin with constant rate. In the third part of reaction, after 2700 s, the reaction is slowing down that corresponds to depletion of chromogenic substrate and finally the reaction reaches a plateau when all substrate is cleaved. As follows from the comparison of curves 1 and 2, t-PA along converted plasminogen to plasmin equally efficiently in the presence or absence of calcium. Neither conversion of plasminogen to plasmin took place in the absence of t-PA no S110A4 induced such conversion by itself, curves 5 and 6. In the presence of S100A4 linear part of reaction starts substantially earlier, which means that total conversion of plasminogen to plasmin was accelerated. Kinetic parameters for t-PA along and for combination of t-PA with S100A4 are represented in Table 4. […] S100A4 accelerated conversion of plasminogen to plasmin in calcium independent manner, curves 3 and 4.

[2] = molecular target: T1, t-PA-mediated plasminogen activation; test: t-PA-mediated plasminogen conversion kinetics with and without S100A4 (Example 12); assay type: biochemical
Experimental: (§1) The effects of peptide SEQ ID 6, peptide SEQ ID 38 and chimera SEQ ID 39 on acceleration oft-PA-mediated conversion of plasminogen to plasmin induced by S100A4 were measured. The kinetics of t-PA-mediated plasminogen activation were determined by measuring the amidolytic activity of plasmin formed during activation of plasminogen. All the experiments were done in 100 μl volume in 96-well plates in triplicates. Glu-plasminogen (Calbiochem) at the concentration of 100 nM was preincubated at 25° C. for 1 h in the presence or absence of 1 μM recombinant S100A4 in a buffer consisting of 50 mM Tris-HCl, pH 7.4, 100 mM NaCl and 5 mM CaCl2 or 5 mM EGTA. In some experiments, different concentrations of peptides or chimera were preincubated together with proteins. The reaction was initiated by addition of 5 nM t-PA (Calbiochem) and 125 μM chromogenic plasmin substrate, Chromozym PL (Roche). The reactions were monitored at 405 nm for 1.5 h in a SPECTRAmax PLUS^384 microplate spectrophotometer (Molecular Devices) under control of the SOFTmax PRO kinetic program (Molecular Devices). The initial rates of plasmin generation, during the first 10-15 min, were calculated using linear regression analysis of plots of A405 nm versus time 2. The initial rates of plasmin generation were reported in units (K) of A405 nm/min^2×10^3. […] The titration data were analyzed with the four-parameter logistic equation K=(A−D)/(1+(x/C)^B)D. If A, asymptotic minimum, =0, this equation is converted to the Michaelis-Menten equation K=D/(1+(C/[S])^B), where [S] is substrate concentration, D=Vmax, C=Km, and B is the Hill coefficient.
The addition of S100A4 to basal reaction (t-PA plus plasminogen) produced a significant increase in the plasminogen conversion rate. […] The stimulation of the plasminogen conversion by S100A4 was concentration-dependent with the half-maximal effect at 2.4 μM.
The kinetic parameters of t-PA-mediated plasminogen conversion were evaluated in the presence and absence of S100A4 as a function of plasminogen concentrations ranging from 3 nM to 3 μM.

S100A4 [3] = molecular target: T2, S100A4 (Homo sapiens, UniProt P26447); test: Modulation of S100A4 dependent tPA-mediated conversion of plasminogen to plasmin by peptides and chimera; assay type: biochemical
T2 construct: GST (N); made in house; host or cells: E. coli ER2507
T2 sequence (P26447 whole entry): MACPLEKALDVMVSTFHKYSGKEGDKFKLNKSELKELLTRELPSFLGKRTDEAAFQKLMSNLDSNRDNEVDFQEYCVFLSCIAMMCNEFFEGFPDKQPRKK
Experimental: as §1
Peptides SEQ ID 6 and SEQ ID 38 inhibited the accelerating effect of S100A4 on t-PA-dependent conversion of plasminogen to plasmin in concentration—dependent manner.
On the other hand, chimera SEQ ID 39 additionally accelerated plasmin formation already accelerated by S100A4.

S100A4 [4] = molecular target: T2, S100A4; test: Fluorescence polarization assay of peptide binding with S100A4; conditions: for change of fluorescence polarization upon adding S100A4: same procedure and conditions as for SEQ ID NO 7
Experimental: The following working buffers have been prepared:
TBS-EGTA: 10 mM TRIS buffer containing 150 mM NaCl, 0.05% bovine serum albumine (BSA), 1 mM EGTA
TBS-Ca: 10 mM TRIS buffer containing 150 mM NaCl, 0.05% bovine serum albumine (BSA), 1 mM CaCl2
10 mM solution of peptide SEQ ID NO 7 in DMSO was diluted with in either TBS-EGTA or TBS-Ca to obtain final peptide concentration 20 nM. Samples of these peptide solutions were placed in 384 well plate (Costar No. 3710), 45 microliters per well. Fluorescence polarization of such samples was determined using Perkin Elmer Wallac EnVision 2100 Multilabel Reader equipped with excitation filter 485 nm and emission filters 535 nm for each channel.
S100A4 has been diluted by either TBS-EGTA or by TBS-Ca to obtain a series of solutions of such concentrations that after adding 5 microliters each solution to 45 microliter peptide samples the final concentration of S100A4 was one of following: 0, 10, 30, 100, 300, 1000, 3000, or 10000 nM. Each sample was prepared in triplicate. The samples were mixed carefully while adding the protein to the peptide, and then they were incubated for 1 h at room temperature. The fluorescence polarization of the samples was determined using the same conditions as for the peptide samples before adding S100A4, and the change of fluorescence polarization of the peptide SEQ ID NO 7 upon adding S100A4 was calculated individually for each sample. The results, average of triplicates, are presentsd on the FIG. 6. The apparent binding constant of peptide SEQ ID NO 7 binding to S100A4 is 236 nM.
The same procedure and conditions have been applied to test binding of peptide SEQ ID NO 9, and peptide SEQ ID NO 10, to S100A4.

t-PA: tissue type plasminogen activator (Calbiochem); basal reaction with plasminogen
Vmax ([1]; Ca (5 mM CaCl2)): 7.152 ± 0.130 ΔA405/t(min) * 1000
Slope (initial rate of plasmin generation) ([1]; Ca (5 mM CaCl2)): 0.078 ΔA405/t^2(min^2) * 1000 and 0.078 ± 0.007 ΔA405/t^2(min^2) * 1000
Time to Vmax ([1]; Ca (5 mM CaCl2)): 2200 s and 2200 ± 69 s
Vmax ([1]; EGTA (5 mM)): 8.589 ± 0.342 ΔA405/t(min) * 1000
Slope (initial rate of plasmin generation) ([1]; EGTA (5 mM)): 0.080 ± 0.008 ΔA405/t^2(min^2) * 1000
Time to Vmax ([1]; EGTA (5 mM)): 2102 ± 69 s
Vmax ([2]; plasminogen 3 nM to 3 μM, presence of EGTA): 1.18
Km ([2]; plasminogen 3 nM to 3 μM, presence of EGTA, read-out: Km): 0.429 µM
Km ([2]; plasminogen 3 nM to 3 μM, read-out: Km of the t-PA-mediated plasminogen conversion): 0.429 µM
Increase in t-PA activity ([2]; presence of EGTA): 1

CSCC[C@@H](NC(=O)[C@@H](CCC(=O)O)NC(=O)[C@@H](CCCNC(=N)N)NC(=O)[C@@H](Cc1c[nH]c2ccccc12)NC(=O)CNC(=O)[C@@H](C)NC(C)=O)C(=O)N[C@H](Cc1ccc(O)cc1)C(=O)N[C@H](CO)C(=O)N[C@H](C)C(=O)N[C@H](CC(C)C)C(=O)N[C@H](CO)C(=O)N[C@@H](C)C(=O)N[C@@H](CO)C(=O)N[C@H](Cc1ccc(O)cc1)C(=O)N[C@@H](C(=O)N[C@H](CCC(=O)O)C(=O)N[C@H](CCCNC(=N)N)C(=O)N[C@H](CC(C)C)C(N)=O)C(C)C [SEQ ID 38, Ac-aGwremysalsASyverl-amide] (HELM PEPTIDE1{[ac].[dA].G.[dW].[dR].[dE].[dM].[dY].[dS].[dA].[dL].[dS].A.S.[dY].[dV].[dE].[dR].[dL].[am]}$$$$V2.0)
effect on S100A4 acceleration at 15 μM peptide (S100A4 [3]; 15 μM peptide): totally neglected the effect of S100A4
IC50 (S100A4 [3]; peptides titrated 0.1-100 μM, 1 μM S100A4, read-out: IC50 for inhibition of accelerating effect of S100A4 on t-PA-dependent conversion of plasminogen to plasmin): 3500 nM

CSCC[C@H](NC(=O)[C@H](Cc1ccc(O)cc1)NC(=O)[C@H](CO)NC(=O)[C@H](C)NC(=O)[C@H](CC(C)C)NC(=O)[C@H](CO)NC(=O)[C@H](C)NC(=O)CNC(=O)[C@H](Cc1ccc(O)cc1)NC(=O)[C@@H](NC(=O)[C@H](CCC(=O)O)NC(=O)[C@H](CCCNC(=N)N)NC(=O)[C@H](CC(C)C)NC(=O)CNC(=O)[C@H](C)NC(=O)c1ccc2c(c1)C(=O)OC21c2ccc(O)cc2Oc2cc(O)ccc21)C(C)C)C(=O)N[C@@H](CCC(=O)O)C(=O)N[C@@H](CCCNC(=N)N)C(=O)N[C@@H](Cc1c[nH]c2ccccc12)C(N)=O [SEQ ID NO 7, Fam-AGLREVYGASLASYMERW-amide] (HELM PEPTIDE1{[O=C1OC2(c3ccc(O)cc3Oc3cc(O)ccc32)c2ccc(C(=O)[*:2])cc21].A.G.L.R.E.V.Y.G.A.S.L.A.S.Y.M.E.R.W.[am]}$$$$V2.0)
Kd (S100A4 [4]; 20 nM peptide, S100A4 0-10000 nM, 1 h room temperature, TBS-EGTA or TBS-Ca, read-out: apparent binding constant of peptide binding to S100A4): 236 nM

Fam-aGlrevyGASlASymerw-amide [SEQ ID NO 9]
change of fluorescence polarization upon adding S100A4 (S100A4 [4]): No change of fluorescence polarization has been detected

Fam-aGwremysalsASyverl-amide [SEQ ID NO 10]
change of fluorescence polarization upon adding S100A4 (S100A4 [4]): No change of fluorescence polarization has been detected
